The values that follow come from patent publication US20250236679A1 (Chugai, published 2025).

The target of test [1] is T1, human DLL3 expressed on cells (human DLL3/BaF3) (human, UniProt Q9NYJ7 27-618).
T1 construct: Full-length human DLL3 on the membrane of transformed Ba/F3 cells; The ADCC assays also used NCI-H1184 small-cell lung cancer cells that express DLL3; also called Delta-like 3; NM_016941
T1 sequence: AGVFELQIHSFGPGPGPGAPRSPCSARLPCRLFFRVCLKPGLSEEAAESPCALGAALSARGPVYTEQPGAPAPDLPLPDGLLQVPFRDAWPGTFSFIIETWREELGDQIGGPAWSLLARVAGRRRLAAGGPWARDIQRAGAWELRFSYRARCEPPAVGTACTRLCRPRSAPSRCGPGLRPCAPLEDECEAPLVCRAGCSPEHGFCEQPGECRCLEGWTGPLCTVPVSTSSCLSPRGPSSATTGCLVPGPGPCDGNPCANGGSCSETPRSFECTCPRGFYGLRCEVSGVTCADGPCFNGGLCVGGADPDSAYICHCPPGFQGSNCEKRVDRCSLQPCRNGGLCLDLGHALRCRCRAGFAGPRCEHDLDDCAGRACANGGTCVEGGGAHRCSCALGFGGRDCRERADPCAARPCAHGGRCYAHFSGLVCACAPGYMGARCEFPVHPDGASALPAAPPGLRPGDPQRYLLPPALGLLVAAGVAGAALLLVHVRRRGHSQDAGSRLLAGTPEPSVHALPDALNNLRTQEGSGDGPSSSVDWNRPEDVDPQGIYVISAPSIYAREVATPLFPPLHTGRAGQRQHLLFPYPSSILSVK
Kind of test: flow cytometry on human DLL3/BaF3 cells, chimeric antibody 1 µg/ml. On the procedure:
The chimeric antibody in the culture supernatant of COS-7 was confirmed to bind to the human DLL3 protein by flow cytometry and ELISA. The chimeric antibody concentration in the culture supernatant of COS-7 was calculated by sandwich ELISA. In this concentration calculation, a human chimeric antibody known for its concentration was used as a standard. The chimeric antibody (final concentration: 1 μg/ml) was added to human DLL3/BaF3 cells suspended in a FACS buffer (PBS containing 1% fetal bovine serum). After incubation at 4° C. for 30 minutes and washing, the cells were reacted with FITC-labeled anti-human antibodies (Beckman Coulter, Inc.), and the binding of the chimeric antibody was analyzed using a flow cytometer FACSCalibur. […] None of the chimeric antibodies bound to Ba/F3 cells, which were a parental line of the forced expressing cells. Human DLL3-Fc was immobilized on a Nunc immunoplate, and the binding of each chimeric antibody to the immobilized protein was analyzed. For detecting antigen-bound chimeric antibodies, the chimeric antibody was added thereto, and alkaline phosphatase-labeled anti-human antibodies (Biosource, AHI0305) and an alkaline phosphatase substrate Sigma 104 were then added in this order. The absorbance was determined. The DL301, DL309, and DL312 chimeric antibodies bound to human DLL3-Fc in a dose-dependent manner (FIG. 8(a)).
COS-7 cells were transfected with the DL306 chimeric antibody expression vector and allowed to transiently express the chimeric antibody. The chimeric antibody in the culture supernatant of COS-7 was confirmed to bind to the human DLL3 protein by flow cytometry. The chimeric antibody concentration in the culture supernatant of COS-7 was calculated by sandwich ELISA. In this concentration calculation, a human chimeric antibody known for its concentration was used as a standard. […] After incubation at 4° C. for 30 minutes and washing, the cells were reacted with FITC-labeled anti-human antibodies (Beckman Coulter, Inc.), and the binding of the chimeric antibody was analyzed using a flow cytometer FACSCalibur.
(In general: In flow cytometry, cells or beads pass a laser one at a time.)

The target of the next test is T2, human DLL3-Fc (human).
T2 construct: also called soluble DLL3 protein
T2 chain: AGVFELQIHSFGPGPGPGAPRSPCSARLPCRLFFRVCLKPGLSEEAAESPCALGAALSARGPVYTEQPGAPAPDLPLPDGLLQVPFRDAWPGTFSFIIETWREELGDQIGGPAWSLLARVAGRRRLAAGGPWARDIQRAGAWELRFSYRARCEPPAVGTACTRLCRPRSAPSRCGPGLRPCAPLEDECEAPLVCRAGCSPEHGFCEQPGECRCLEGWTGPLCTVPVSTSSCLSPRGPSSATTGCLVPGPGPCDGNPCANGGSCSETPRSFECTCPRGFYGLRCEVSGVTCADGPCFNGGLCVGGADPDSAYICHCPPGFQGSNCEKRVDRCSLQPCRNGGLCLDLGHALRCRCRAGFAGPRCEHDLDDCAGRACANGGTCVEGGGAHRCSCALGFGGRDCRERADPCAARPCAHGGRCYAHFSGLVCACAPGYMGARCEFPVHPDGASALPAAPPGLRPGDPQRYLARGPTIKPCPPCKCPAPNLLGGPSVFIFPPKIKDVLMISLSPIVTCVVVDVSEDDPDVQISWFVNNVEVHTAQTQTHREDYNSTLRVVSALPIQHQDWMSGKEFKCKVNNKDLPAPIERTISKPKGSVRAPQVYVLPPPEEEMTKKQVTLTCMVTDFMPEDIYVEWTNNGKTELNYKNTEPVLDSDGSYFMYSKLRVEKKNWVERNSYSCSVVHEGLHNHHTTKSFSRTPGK
The test is described as follows: ELISA, immobilized human DLL3-Fc. On the procedure: The competition of a chimeric antibody and a mouse antibody for binding to the antigen molecule was analyzed by ELISA (FIG. 8 (b)). Human DLL3-Fc was added at 10 ng/well to a Nunc immunoplate and immobilized thereon. A mixture (final concentration: 50 ng/ml) of the chimeric antibody and the appropriately diluted mouse antibody was added to the DLL3-Fc protein-immobilized plate. The plate was incubated at room temperature for 1 hour and then washed. Alkaline phosphatase-labeled anti-human antibodies were added thereto and incubated. After the incubation, Sigma 104 was added thereto, and the absorbance was measured. The binding of the chimeric antibody to the antigen molecule competed with that of the original mouse monoclonal antibody thereto.

Test [2] concerns the target T1, human DLL3 expressed on cells (human …). The test is described as follows: flow cytometry on human DLL3/BaF3 cells, antibody 5 µg/ml. How it is done: The binding of each monoclonal antibody to human DLL3 expressed on a cell membrane and the behavior of a human DLL3-monoclonal antibody complex on the cell membrane were analyzed by flow cytometry. Human DLL3/BaF3 cells were suspended in a FACS buffer (PBS containing 1% fetal bovine serum and 0.05% sodium azide). The cell suspension of 1×10⁶ cells/ml was reacted with the monoclonal antibody (final concentration: 5 μg/ml) at 4° C. for 30 minutes. After centrifugation and supernatant removal, the cells were washed once with a FACS buffer. FITC-labeled anti-mouse IgG (H+L) antibodies (Beckman Coulter, Inc.) were added thereto and incubated at 4° C. for 30 minutes. Unreacted FITC antibodies were removed by centrifugation. Then, the cells were resuspended and analyzed using a flow cytometer FACSCalibur (Becton, Dickinson and Company). For the purpose of analyzing the movement or disappearance of the DLL3-antibody complex from the cell membrane, human DLL3/BaF3 cells were suspended in an RPMI1640 culture medium containing 10% fetal bovine serum (FBS) and mouse IL3. The cell suspension of 1×10⁶ cells/ml was mixed with the monoclonal antibody (final concentration: 5 μg/ml) and reacted at 37° C. for 1 hour or 4 hours in a CO2 incubator. After the reaction, the amount of the antibody bound onto the cell membrane was analyzed by flow cytometry in the same way as above. The geometric mean of fluorescence intensity values (X Geo Mean) in a cell histogram plot was determined using the analytical software CELLQuest Pro included in FACSCalibur. All the isolated anti-DLL3 monoclonal antibodies bound to DLL3 on the cells (FIG. 3(a)). The reaction of the antibody with the cells at 4° C. inhibits membrane fluidity such as the cellular uptake of the DLL3-antibody complex from the cell membrane. The reaction of the antibody with the cells at 37° C. may cause the cellular uptake of the DLL3-antibody complex and shading (release from the cell membrane) resulting from protease digestion or the like. The amount of each monoclonal antibody bound onto the cell membrane as a result of incubation at 37° C. for 1 hour or 4 hours is shown in FIG. 3(b) as a relative value compared with that at 4° C. As a result of incubation at 37° C., the amount of the antibody DL303, DL304, DL305, DL308, DL309, or MAB4315 on the surface of the cell membrane was decreased.

B1: DL309 human chimeric antibody (antibody, human IgG1, kappa)
heavy: not shown
light: DIVMTQSQKFMSTSVGDRVSVTCKASQNVGTNVAWYQQKPGQSPKALIYSASYRYSGVPDRFTGSGSGTDFTLTISNVQSEDLAEYFCQQYNNYPLTFGAGTKLELKRTVAAPSVFIFPPSDEQLKSGTASVVCLLNNFYPREAKVQWKVDNALQSGNSQESVTEQDSKDSTYSLSSTLTLSKADYEKHKVYACEVTHQGLSSPVTKSFNRGEC
notes: Mouse variable regions with human IgG1 constant regions; also called chimeric antibody DL309; DL309 chimeric antibody
For the molecule B1, the binding result (in test [1]; with human DLL3-Fc) was “binds” in each case.

B2: DL312 human chimeric antibody (antibody, human IgG1, kappa)
heavy: not shown
light: DIQMTQSPSSLSASLGERVSLTCRASQEISDYLSWLQQKPDGTIKRLIFAASTLDSGVPKRFSGSRSGSDFSLSISSLESEDFADYYCLQYASYPYTFGSGTKLEIKRTVAAPSVFIFPPSDEQLKSGTASVVCLLNNFYPREAKVQWKVDNALQSGNSQESVTEQDSKDSTYSLSSTLTLSKADYEKHKVYACEVTHQGLSSPVTKSFNRGEC
notes: Mouse variable regions with human IgG1 constant regions; also called chimeric antibody DL312; DL312 chimeric antibody
For B2, the binding result (in test [1]; with human DLL3-Fc) was “binds” in each case.

B3: DL301 human chimeric antibody (antibody, human IgG1, kappa)
heavy: not shown
light: DIKMTQSPSSMYASLGERVTITCKASQDINSYLIWFQQKPGKSPKTLIYRTNRLVDGVPSRFSGSGSGQDYSLTISSLEYGDMGIYYCLQYDEFPFTFGSGTKLEIKRTVAAPSVFIFPPSDEQLKSGTASVVCLLNNFYPREAKVQWKVDNALQSGNSQESVTEQDSKDSTYSLSSTLTLSKADYEKHKVYACEVTHQGLSSPVTKSFNRGEC
notes: Mouse variable regions with human IgG1 constant regions; also called chimeric antibody DL301; DL301 chimeric antibody
B3: the binding result (in test [1]; with human DLL3-Fc) was “binds” each time.

B4: DL309 mouse monoclonal antibody (antibody, mouse IgG1, kappa)
heavy: QVQLQQSGGDLMKPGASVKISCKAAGYTFSNYYIEWVKQRPGHGLEWIGEILPGSGSTTYNEKFKGKASFTADTSSNTAYMQLSSLTSEDSAVYYCARWGAREPGFPYWGQGTLVTVSAAKTTPPSVYPLAPGSAAQTNSMVTLGCLVKGYFPEPVTVTWNSGSLSSGVHTFPAVLQSDLYTLSSSVTVPSSTWPSETVTCNVAHPASSTKVDKKIVPRDCGCKPCICTVPEVSSVFIFPPKPKDVLTITLTPKVTCVVVDISKDDPEVQFSWFVDDVEVHTAQTQPREEQFNSTFRSVSELPIMHQDWLNGKEFKCRVNSAAFPAPIEKTISKTKGRPKAPQVYTIPPPKEQMAKDKVSLTCMITDFFPEDITVEWQWNGQPAENYKNTQPIMNTNGSYFVYSKLNVQKSNWEAGNTFTCSVLHEGLHNHHTEKSLSHSPGK
light: DIVMTQSQKFMSTSVGDRVSVTCKASQNVGTNVAWYQQKPGQSPKALIYSASYRYSGVPDRFTGSGSGTDFTLTISNVQSEDLAEYFCQQYNNYPLTFGAGTKLELKRADAAPTVSIFPPSSEQLTSGGASVVCFLNNFYPKDINVKWKIDGSERQNGVLNSWTDQDSKDSTYSMSSTLTLTKDEYERHNSYTCEATHKTSTSPIVKSFNRNEC
notes: also called DL309 mouse antibody
As for B4, the binding result (in test [2]; with human DLL3-Fc) was “binds” throughout.
